Source: PMC2856898 (The Journal of Cell Biology, 2010)

B1: Nnf1 (subunit of the recombinant Mis12 complex) (natural protein, human, UniProt Q6P1K2 1-205, looked up)
chain: MAEASSANLGSGCEEKRHEGSSSESVPPGTTISRVKLLDTMVDTFLQKLVAAGSYQRFTDCYKCFYQLQPAMTQQIYDKFIAQLQTSIREEISDIKEEGNLEAVLNALDKIVEEGKVRKEPAWRPSGIPEKDLHSVMAPYFLQQRDTLRRHVQKQEAENQQLADAVLAGRRQVEELQLQVQAQQQAWQALHREQRELVAVLREPE
B2: Mis12 (subunit of the recombinant Mis12 complex) (natural protein, human, UniProt Q9H081 1-205, looked up)
chain: MSVDPMTYEAQFFGFTPQTCMLRIYIAFQDYLFEVMQAVEQVILKKLDGIPDCDISPVQIRKCTEKFLCFMKGHFDNLFSKMEQLFLQLILRIPSNILLPEDKCKETPYSEEDFQHLQKEIEQLQEKYKTELCTKQALLAELEEQKIVQAKLKQTLTFFDELHNVGRDHGTSDFRESLVSLVQNSRKLQNIRDNVEKESKRLKIS
B3: Nsl1 (subunit of the recombinant Mis12 complex) (natural protein, human, UniProt Q96IY1 1-281, looked up)
chain: MAGSPELVVLDPPWDKELAAGTESQALVSATPREDFRVRCTSKRAVTEMLQLCGRFVQKLGDALPEEIREPALRDAQWTFESAVQENISINGQAWQEASDNCFMDSDIKVLEDQFDEIIVDIATKRKQYPRKILECVIKTIKAKQEILKQYHPVVHPLDLKYDPDPAPHMENLKCRGETVAKEISEAMKSLPALIEQGEGFSQVLRMQPVIHLQRIHQEVFSSCHRKPDAKPENFITQIETTPTETASRKTSDMVLKRKQTKDCPQRKWYPLRPKKINLDT

target: T1, His6-Dsn1 (subunit of the recombinant Mis12 complex) (human, UniProt Q9H410 1-356); experiment: co-sedimentation
T1 sequence (looked up): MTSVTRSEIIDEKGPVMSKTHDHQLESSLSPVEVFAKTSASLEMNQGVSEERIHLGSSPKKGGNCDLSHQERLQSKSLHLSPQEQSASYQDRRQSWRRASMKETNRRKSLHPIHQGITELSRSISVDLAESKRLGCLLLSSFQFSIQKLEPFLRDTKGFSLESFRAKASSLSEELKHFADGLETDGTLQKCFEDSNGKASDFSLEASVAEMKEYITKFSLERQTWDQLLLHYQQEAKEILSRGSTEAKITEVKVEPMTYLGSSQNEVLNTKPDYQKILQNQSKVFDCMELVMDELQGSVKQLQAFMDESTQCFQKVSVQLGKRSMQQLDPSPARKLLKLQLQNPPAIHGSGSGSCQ

Binding result, binds:
B1, B2, B3
